Laboratory results published in publication PMC5025757, “Sequences flanking the core-binding site modulate glucocorticoid receptor structure and activity”.

Key:
[1] = molecular target: T1, GR DBD wild type (rat, UniProt P06536 440-525); experiment: EMSA; value only in figure; similar Kd for A/T and G/C flanks; EMSA: 20 mM Tris pH 7.5, 2 mM MgCl2, 1 mM EDTA, 10% glycerol, 0.3 mg/ml BSA, 4 mM DTT, 0.05 ug/ul dIdC, 1.25 nM DNA, 30 min; NMR: 20 mM Na phosphate, 100 mM NaCl, 1 mM DTT, pH 6.7, 5% D2O, imino titration at 25 C; settings: protein: recombinant; chain copies: 2; label: Cy5 5' of strand 1; blunt
T1 sequence (P06536 440-525): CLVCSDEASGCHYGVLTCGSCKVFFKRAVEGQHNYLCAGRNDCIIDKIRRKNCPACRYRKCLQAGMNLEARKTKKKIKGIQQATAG

[2] = molecular target: GR DBD A477T (dim mutant) (rat, UniProt P06536 440-525, A477T); experiment: EMSA; affinity lower than wild type; EMSA: 20 mM Tris pH 7.5, 2 mM MgCl2, 1 mM EDTA, 10% glycerol, 0.3 mg/ml BSA, 4 mM DTT, 0.05 ug/ul dIdC, 1.25 nM DNA, 30 min; NMR: 20 mM Na phosphate, 100 mM NaCl, 1 mM DTT, pH 6.7, 5% D2O, imino titration at 25 C; settings: protein: recombinant; chain copies: 2; label: Cy5 5' of strand 1; blunt
GR DBD A477T (dim mutant), sequence (P06536 440-525 A477T): as the sequence (P06536 440-525) above, with A38T counted along it

[3] = molecular target: T1, GR DBD wild type; experiment: NMR (15N-HSQC); EMSA: 20 mM Tris pH 7.5, 2 mM MgCl2, 1 mM EDTA, 10% glycerol, 0.3 mg/ml BSA, 4 mM DTT, 0.05 ug/ul dIdC, 1.25 nM DNA, 30 min; NMR: 20 mM Na phosphate, 100 mM NaCl, 1 mM DTT, pH 6.7, 5% D2O, imino titration at 25 C; settings: protein: recombinant; chain copies: 2; blunt
[4] = molecular target: T1, GR DBD wild type; experiment: NMR (1D imino proton titration); G46 more broadened than with G/C; 25 C; EMSA: 20 mM Tris pH 7.5, 2 mM MgCl2, 1 mM EDTA, 10% glycerol, 0.3 mg/ml BSA, 4 mM DTT, 0.05 ug/ul dIdC, 1.25 nM DNA, 30 min; NMR: 20 mM Na phosphate, 100 mM NaCl, 1 mM DTT, pH 6.7, 5% D2O, imino titration at 25 C; settings: protein: recombinant; chain copies: 2; blunt
[5] = molecular target: T1, GR DBD wild type; experiment: NMR (1D imino proton titration); 25 C; EMSA: 20 mM Tris pH 7.5, 2 mM MgCl2, 1 mM EDTA, 10% glycerol, 0.3 mg/ml BSA, 4 mM DTT, 0.05 ug/ul dIdC, 1.25 nM DNA, 30 min; NMR: 20 mM Na phosphate, 100 mM NaCl, 1 mM DTT, pH 6.7, 5% D2O, imino titration at 25 C; settings: protein: recombinant; chain copies: 2; blunt
[6] = molecular target: T1, GR DBD wild type; experiment: EMSA; value only in figure; slightly higher affinity than A/T; EMSA: 20 mM Tris pH 7.5, 2 mM MgCl2, 1 mM EDTA, 10% glycerol, 0.3 mg/ml BSA, 4 mM DTT, 0.05 ug/ul dIdC, 1.25 nM DNA, 30 min; NMR: 20 mM Na phosphate, 100 mM NaCl, 1 mM DTT, pH 6.7, 5% D2O, imino titration at 25 C; settings: protein: recombinant; chain copies: 2; label: Cy5 5' of strand 1; blunt

B1: A-Cgt-T EMSA (dsDNA)
DNA 1: ACCAAGAACATTTTGTACGTCTC
DNA 2: GAGACGTACAAAATGTTCTTGGT
- binding result [1]: binds
- Kd [2]: 3.1 ± 0.4 µM

B2: Cgt A-C NMR (dsDNA)
DNA 1: GCCAAGAACATTTTGTACGCCTCG
DNA 2: CGAGGCGTACAAAATGTTCTTGGC
- binding result [3]: binds

B3: A-Sgk-T EMSA (dsDNA)
DNA 1: ACCAAGAACATTTTGTCCGTCTC
DNA 2: GAGACGGACAAAATGTTCTTGGT
- binding result [1]: binds

B4: Cgt A-T NMR (dsDNA)
DNA 1: GCCAAGAACATTTTGTACGTCTCG
DNA 2: CGAGACGTACAAAATGTTCTTGGC
- binding result [4]: binds

B5: G-Sgk-C EMSA (dsDNA)
DNA 1: ACCGAGAACATTTTGTCCGCCTC
DNA 2: GAGGCGGACAAAATGTTCTCGGT
- binding result [1]: binds

B6: Cgt G-C NMR (dsDNA)
DNA 1: GCCGAGAACATTTTGTACGCCTCG
DNA 2: CGAGGCGTACAAAATGTTCTCGGC
- binding result [5]: binds

B7: G-Cgt-C EMSA (dsDNA)
DNA 1: ACCGAGAACATTTTGTACGCCTC
DNA 2: GAGGCGTACAAAATGTTCTCGGT
- Kd [2]: 3.5 ± 1.1 µM
- binding result [6]: binds
